Laboratory results as given in the supplement of paper PMC7877785.
± gives the uncertainty stated by the source.

Assay: self-splicing fitness, log relative to wild type (ln ratio); higher = more splicing; Tetrahymena group I intron in knt gene, E. coli kanamycin selection, DiMSum; sequences stand for … in CUCUCU…GGAGGGAAAAGUUAUCAGGCAUGCACCUGGUAGCUAGUCUUUAAACCAAUAGAUUGCAUCGGUUUAAAAGGCAAGACCGUCAAAUUGCGGGAAAGGGGUCAACAGCCGUUCAGUACCAAGUCUCAGGGGAAACUUUGAGAUGGCCUUGCAAAGGGUAUGGUAAUAAGCUGACGGACAUGGUCCUAACCACGCAGCCAAGUCCUAAGUCAACAGAUCUUCUGUUGAUAUGGAUGCAGUUCACAGACUAAAUGUCGGUCGGGGAAGAUGUAUUCUUCUCAUAAGAUAUAGUCGGACCUCUCCUUAAUGGGAGCUAGCGGAUGAAGUGAUGCAACACUGGAGCCGCUGGGAACUAAUUUGUAUGCGAAAGUAUAUUGAUUAGUUUUGGAGUACUCGUGGUCG
Procedure, shortened: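 Pooled colonies went to amplicon sequencing on an Illumina HiSeq 2500 after six replicate transformations. The plates were LB agar with 100 μg/mL carbenicillin, 50 μM IPTG and 0.2% rhamnose, with or without 25 μg/mL kanamycin, incubated overnight at 37°C or 30°C. The E. coli BL21(DE3) library had all eight P1ex-region intron nucleotides randomised, the intron placed in the knt kanamycin-resistance gene on pET-22b(+). DiMSum fitness is the error-weighted combination of replicate fold changes, kanamycin against none, normalised to wild type.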

Row | Sequence | self-splicing fitness (ln) (30 °C) | self-splicing fitness (ln) (37 °C)
1 | GCUUAGCAAUAUUACGACCG | -1.2 ± 0.26 | -1.19 ± 0.29
2 | CCCAAGCAAUAUUACGAGUA | -4.12 ± 0.18 | -2.5 ± 0.14
3 | UAUGAGCAAUAUUACGCGAC | -2.82 ± 0.44 | -0.954 ± 0.39
4 | UUUCAGCAAUAUUACGUAAU | -2.89 ± 0.14 | -1.58 ± 0.16
5 | ACGAAGCAAUAUUACGUCGC | -3.22 ± 0.21 | -1.24 ± 0.17
6 | CAGAAGCAAUAUUACGUCAC | -3.02 ± 0.36 | -1.05 ± 0.25
7 | AUUCAGCAAUAUUACGGAAU | -2.86 ± 0.14 | -2.61 ± 0.23
8 | GCUCAGCAAUAUUACGACGC | -0.319 ± 0.12 | -0.102 ± 0.19
9 | ACUUAGCAAUAUUACGUCCC | -0.637 ± 0.21 | -0.072 ± 0.25
10 | GGAUAGCAAUAUUACGCCCA | -1.36 ± 0.49 | -1.39 ± 0.33
11 | CAGGAGCAAUAUUACGAGAU | -3.82 ± 0.29 | -3.8 ± 0.39
12 | GUCGAGCAAUAUUACGCAUA | -2.14 ± 0.18 | -1.6 ± 0.16
13 | CCUUAGCAAUAUUACGGGUC | -4.43 ± 0.3 | -2.86 ± 0.38
14 | CCAAAGCAAUAUUACGUUCU | -3.78 ± 0.26 | -2.3 ± 0.23
15 | CGUCAGCAAUAUUACGUCGU | -3 ± 0.09 | -1.99 ± 0.11
16 | GUCCAGCAAUAUUACGAUUC | -0.315 ± 0.055 | 0.0606 ± 0.075
17 | GAGCAGCAAUAUUACGCGGU | -3.17 ± 0.27 | -0.69 ± 0.22
18 | CAAAAGCAAUAUUACGCAGC | -3.68 ± 0.16 | -2.36 ± 0.16
19 | AGCCAGCAAUAUUACGAACA | -2.8 ± 0.24 | -1.98 ± 0.33
20 | AAUCAGCAAUAUUACGACGU | 0.0618 ± 0.056 | 0.666 ± 0.07
21 | UUAGAGCAAUAUUACGCGUA | -1.59 ± 0.11 | -0.559 ± 0.13
22 | AACUAGCAAUAUUACGAAAA | -1.53 ± 0.16 | -1.75 ± 0.17
23 | UGGGAGCAAUAUUACGGUAG | -3.16 ± 0.28 | -1.26 ± 0.21
24 | CCGGAGCAAUAUUACGGUAC | -2.73 ± 0.22 | -2.25 ± 0.4

Row | Sequence | self-splicing fitness (ln) (30 °C) | self-splicing fitness (ln) (37 °C)
25 | GAGGAGCAAUAUUACGUCAG | -3.5 ± 0.37 | 
26 | GGGUAGCAAUAUUACGAAUU | -1.04 ± 0.084 | -0.438 ± 0.11
27 | ACGAAGCAAUAUUACGGCUA | 0.0742 ± 0.099 | 0.022 ± 0.11
28 | GCCUAGCAAUAUUACGUAGU | -0.126 ± 0.068 | 0.357 ± 0.088
29 | UCAGAGCAAUAUUACGUAGU | -3.58 ± 0.43 | -2.88 ± 0.35
30 | CAGGAGCAAUAUUACGACCA |  | -1.27 ± 0.31
31 | AUAUAGCAAUAUUACGUCUG | -2.35 ± 0.1 | -0.0249 ± 0.12
32 | AGUAAGCAAUAUUACGAAGU | -1.75 ± 0.24 | -0.18 ± 0.27
33 | CUCGAGCAAUAUUACGAUGA | -2.19 ± 0.19 | -1.36 ± 0.2
34 | GGUCAGCAAUAUUACGUAUA | -1.7 ± 0.18 | -0.369 ± 0.18
35 | GGCAAGCAAUAUUACGUUGA | -0.666 ± 0.066 | -0.307 ± 0.092
36 | CAUGAGCAAUAUUACGGUGA | -1.91 ± 0.35 | -2.8 ± 0.44
37 | GUUCAGCAAUAUUACGAUCC | -1.37 ± 0.12 | -1.05 ± 0.14
38 | CACCAGCAAUAUUACGCUGU | -3.61 ± 0.15 | -2.63 ± 0.19
39 | GUAAAGCAAUAUUACGAAUG | -2.8 ± 0.14 | -1.23 ± 0.2
40 | CCAGAGCAAUAUUACGGUCC | -3.93 ± 0.33 | -1.51 ± 0.34
41 | UUAAAGCAAUAUUACGAUAU | -1.05 ± 0.11 | -0.358 ± 0.13
42 | GUCCAGCAAUAUUACGGUCA | -0.244 ± 0.07 | -0.0837 ± 0.072
43 | GACCAGCAAUAUUACGGGAC | -2.5 ± 0.092 | -1.03 ± 0.092
44 | UGAGAGCAAUAUUACGGUGG | -3.4 ± 0.17 | -2.82 ± 0.2
45 | GAAAAGCAAUAUUACGCCGC | -2.23 ± 0.25 | 
46 | CCCUAGCAAUAUUACGACUC | -4.18 ± 0.28 | -2.71 ± 0.24
47 | GUAGAGCAAUAUUACGCGCU | -2.69 ± 0.32 | -2.85 ± 0.32
48 | UGUCAGCAAUAUUACGGCGG | -0.922 ± 0.084 | 0.0377 ± 0.12
